Consider seven molecules from patent publication US20040077828A1 (US Dept. of Health and Human Services, published 2004).

The labels stand for the following.
B2: recombinant human secreted Frizzled-related protein-1 (sFRP-1) (other)
chain: SEYDYVSFQSDIGPYQSGRFYTKPPQCVDIPADLRLCHNVGYKKMVLPNLLEHETMAEVKQQASSWVPLLNKNCHAGTQVFLCSLFAPVCLDRPIYPCRWLCEAVRDSCEPVMQFFGFYWPEMLKCDKFPEGDVCIAMTPPNATEASKPQGTTVCPPCDNELKSEAIIEHLCASEFALRMKIKEVKKENGDKKIVPKKKKPLKLGPIKKKDLKKLVLYLKNGADCPCHQLDNLSHHFLIMGRKVKSQYLLTAIHKWDKKNKEFKNFMKKMKNHECPTFQSVFK
notes: also called full-length sFRP-1
B5: recombinant soluble RANKL (PeproTech) (ligand)
chain: IRAEKAMVDGSWLDLAKRSKLEAQPFAHLTINATDIPSGSHKVSLSSWYHDRGWAKISNMTFSNGKLIVNQDGFYYLYANICFRHHETSGDLATEYLQLMVYVTKTSIKIPSSHTLMKGGSTKYWSGNSEFHFYSINVGGFFKLRSGEEISIEVSNPSLLDPDQDATYFGAFKVRDID
notes: Reagent of the ELISA assays; also called sRANKL

The target in experiment [1] is B2. As to the kind of experiment: phage ELISA, sFRP-1-coated against BSA-coated wells. How it is done:
Amplified phage recovered from bacterial broth after this first enrichment step were subjected to two more rounds of panning in wells coated with sFRP-1 as described in the previous paragraph, except that the phage were incubated for only 2 hours and 1 hour in the second and third panning steps, respectively. After the third round of panning, phage obtained from the sFRP-1-coated well were titered and seeded on a lawn of bacteria to permit isolation of phage from 200 separate colonies. Bacteria from each of these colonies were grown in broth, pelleted by centrifugation and phage retrieved in the supernatant. Each of these phage supernatants was tested for binding to sFRP-1-coated ELISA wells versus wells only coated with the BSA blocking solution. Phage were detected in this assay with primary antibody directed against phage coat protein (Pharmacia Biotech, Uppsala, Sweden, #27-9411-01) and standard detection reagents.
To identify peptide sequences that bind sFRP-1, ˜25×10⁹ phages from a library containing a diverse repertoire of twelve-amino acid residue segments linked to the gene III coat protein of M13 phage were screened. After three successive rounds of panning for phage that bound to ELISA wells preincubated with sFRP-1, the phage preparation selected for its ability to bind sFRP-1 was titered and then plated on a lawn of bacteria. Phage from 200 separate colonies of lysed bacteria were picked, grown in bacterial broth overnight, recovered in supernatant, and tested for their ability to bind preferentially to sFRP-1 versus BSA in an ELISA. Phage that bound at least five times more avidly to sFRP-1 than BSA-coated wells were subjected to nucleotide sequence analysis to determine the identity of the peptide sequence responsible for this binding specificity.
For orientation: In an ELISA, binding on a coated surface is turned into a signal by an enzyme label.

In experiment [2] the target is T1, alkaline phosphatase itself (UniProt P00634 22-471 = phosphatase, limits assumed).
T1 construct: Control for the peptide/AP fusions; also called AP
T1 sequence (P00634 22-471 limits assumed): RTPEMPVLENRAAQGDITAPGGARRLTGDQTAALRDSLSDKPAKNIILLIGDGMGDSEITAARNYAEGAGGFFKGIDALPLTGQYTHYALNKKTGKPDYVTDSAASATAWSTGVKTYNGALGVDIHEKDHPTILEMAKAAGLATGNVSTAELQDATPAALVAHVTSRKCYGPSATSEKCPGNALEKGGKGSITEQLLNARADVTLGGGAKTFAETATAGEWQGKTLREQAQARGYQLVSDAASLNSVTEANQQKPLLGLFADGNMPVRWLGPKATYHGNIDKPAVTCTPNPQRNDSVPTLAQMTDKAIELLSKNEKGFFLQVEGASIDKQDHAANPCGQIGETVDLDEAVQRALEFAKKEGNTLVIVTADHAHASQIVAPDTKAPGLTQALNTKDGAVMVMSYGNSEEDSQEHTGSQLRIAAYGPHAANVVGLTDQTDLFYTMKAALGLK
As to the kind of experiment: ELISA, sFRP-1-coated wells against BSA wells.

The target in another experiment is T2, bovine serum albumin (bovine, UniProt P02769 25-607).
T2 construct: Control coat; also called BSA
T2 sequence (P02769 25-607 limits assumed): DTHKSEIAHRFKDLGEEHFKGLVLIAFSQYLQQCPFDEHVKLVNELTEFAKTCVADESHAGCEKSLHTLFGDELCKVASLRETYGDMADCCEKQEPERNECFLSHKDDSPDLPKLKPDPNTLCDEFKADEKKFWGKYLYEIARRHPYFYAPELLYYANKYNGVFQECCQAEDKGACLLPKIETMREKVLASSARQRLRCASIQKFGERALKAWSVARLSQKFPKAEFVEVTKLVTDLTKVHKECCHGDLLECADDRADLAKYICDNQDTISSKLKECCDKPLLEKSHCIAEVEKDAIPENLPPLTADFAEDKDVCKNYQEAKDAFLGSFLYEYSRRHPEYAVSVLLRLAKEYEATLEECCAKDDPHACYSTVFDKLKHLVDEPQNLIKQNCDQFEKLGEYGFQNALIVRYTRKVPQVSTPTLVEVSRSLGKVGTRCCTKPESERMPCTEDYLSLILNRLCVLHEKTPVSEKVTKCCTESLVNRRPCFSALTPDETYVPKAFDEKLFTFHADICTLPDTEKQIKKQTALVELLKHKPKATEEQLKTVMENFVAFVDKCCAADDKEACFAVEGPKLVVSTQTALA
As to the kind of experiment: ELISA: serial dilutions of soluble RANKL on wells treated with BSA only; detection with RANKL antibody, AP-coupled secondary antibody and pNPP. How it is done:
(§1) ELISA experiments were generally performed as previously described (Uren et al., J. Biol. Chem. 275:4374-4382, 2000), with modifications depending on the sFRP binding partner to be tested. Typically, wells were coated with 0.5 or 1 μg of sFRP-1, blocked with BSA (0.2%, 1%, or 4%) and then incubated with putative binding partner overnight at room temperature. When investigating the binding of peptide/AP chimeras, after aspiration of bacterial broths, wells were washed and incubated with p-nitrophenolphosphate (pNPP). Color development was determined at 405 nm with an ELISA reader. For competition experiments, soluble peptides were preincubated with peptide/AP chimeras in bacterial broth for 30 min at room temperature prior to transfer into ELISA wells coated with sFRP-1 or BSA. When testing RANKL binding to sFRP-1, serial dilutions of soluble RANKL were assayed in replicate. Following overnight incubation at room temperature, RANKL solutions were aspirated and bound RANKL was detected by sequential incubations with primary antibody to RANKL, secondary antibody coupled with AP and pNPP. Similar experimental designs were employed when other TNFα family members were examined for binding to sFRPs, and when sFRP-1 derivatives or sFRP-2 were the binding targets for RANKL.
(§2) The possibility that sFRP-1 (SEQ ID NO: 3) and RANKL interact directly with each other was tested using an ELISA assay. […]

The target of experiment [3] is B2. As to the kind of experiment: ELISA: serial dilutions of soluble RANKL on sFRP-1-coated, BSA-blocked wells; detection with RANKL antibody, AP-coupled secondary antibody and pNPP. How it is done:
as §1, §2

Experiment [4] has as its target T3, naturally occurring sFRP-1 present in the cultures.
T3 sequence (Q8C4U3 32-314, species assumed, looked up): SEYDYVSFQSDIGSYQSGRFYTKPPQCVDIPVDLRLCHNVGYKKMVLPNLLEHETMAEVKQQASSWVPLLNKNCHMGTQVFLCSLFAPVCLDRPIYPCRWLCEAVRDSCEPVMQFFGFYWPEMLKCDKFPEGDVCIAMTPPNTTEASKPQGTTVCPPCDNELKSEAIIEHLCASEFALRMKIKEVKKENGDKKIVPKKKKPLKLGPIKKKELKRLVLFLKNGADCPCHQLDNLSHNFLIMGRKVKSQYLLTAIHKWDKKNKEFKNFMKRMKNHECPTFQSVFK
The experiment can be described thus: cell-based or functional assay.

Experiment [5] addresses B2. The experiment can be described thus: isothermal titration calorimetry, A-C2 (200 uM) injected into sFRP-1 (10 uM) in PBS. As to the method: (§3) ITC experiments were performed with a VP-ITC MicroCalorimeter MicroCal, LLC, Northhampton, Mass.) according to the manufacturer's User Manual. In brief, 6 μl aliquots of A-C2 (200 μM, dissolved in PBS) were injected at regular intervals into a chamber containing sFRP-1 (10 μM, also in PBS). Increases in temperature of the chamber resulting from the binding of A-C2 and sFRP-1 were determined as a measure of the heat produced by the binding reaction. Several parameters, included enthalpy and dissociation constant, were calculated from these measurements. This technique is commonly used to quantify the thermodynamic properties of binding interactions between proteins and peptides.
(§4) Binding was evident, as heat was generated when aliquots of AC2 solution were added to a chamber containing sFRP-1 dissolved in PBS. By contrast, no heat was produced when AC2 was added to a chamber containing only PBS.
On the technique in general: Isothermal titration calorimetry measures the heat released or taken up as one component is titrated into another.

For experiment [6], the target named is B2. As to the kind of experiment: Isothermal titration calorimetry: A-C2 peptide (200 µM in PBS) injected into sFRP-1 (10 µM in PBS). How it is done: as §3, §4
The target in experiment [7] is B2. As to the kind of experiment: Isothermal titration calorimetry: A-C2 peptide (200 µM in PBS) injected into sFRP-1 (10 µM in PBS); no unit printed in the box. As to the method: as §3, §4
The target of experiment [8] is B5. The experiment can be described thus: ELISA: wells coated with sFRP-1 or derivative, incubated with soluble RANKL, bound RANKL detected; triplicates. How it is done: FIG. 12 is a graph of the binding avidity of several sFRP-1 deletion mutants for RANKL in ELISA experiments. Wells were coated either with full-length sFRP-1 or with any one of a set of epitope-tagged sFRP-1 deletion mutants (Uren et al., J Biol Chem 275:4374-4382, 2000) or BSA control, and then sequentially incubated with soluble RANKL and reagents to detect RANKL bound to the wells. The results shown are the mean +/−S.D. of triplicate measurements from a representative experiment.
ELISA experiments were generally performed as previously described (Uren et al., J. Biol. Chem. 275:4374-4382, 2000), with modifications depending on the sFRP binding partner to be tested. Typically, wells were coated with 0.5 or 1 μg of sFRP-1, blocked with BSA (0.2%, 1%, or 4%) and then incubated with putative binding partner overnight at room temperature. When investigating the binding of peptide/AP chimeras, after aspiration of bacterial broths, wells were washed and incubated with p-nitrophenolphosphate (pNPP). Color development was determined at 405 nm with an ELISA reader. […] Following overnight incubation at room temperature, RANKL solutions were aspirated and bound RANKL was detected by sequential incubations with primary antibody to RANKL, secondary antibody coupled with AP and pNPP. […]

Where no end group is shown, it is not given here.

B1: A-E4-expressing M13 phage (peptide linked to gene III coat protein) (other)
chain: VVDGRWVQGLED
modifications: not fully specified
notes: Printed as VVDGRWVQGLED; also called A-E4 phage; not shown: M13 phage gene III coat protein
B1: the “Specificity (sFRP-1/BSA)” value in experiment [1] is 10 ratio of binding to sFRP-1 wells over BSA wells.

Turning to B2, the binding result in experiment [2] is reported as “no binding”.

B3: A-C2-expressing M13 phage (peptide linked to gene III coat protein) (other)
chain: QGTLVDGRWLQL
modifications: not fully specified
notes: also called A-C2 phage; not shown: M13 phage gene III coat protein
Turning to B3, the “Specificity (sFRP-1/BSA)” value in experiment [1] was 10 ratio of binding to sFRP-1 wells over BSA wells.

B4: B-B9 M13 phage (peptide linked to gene III coat protein) (other)
chain: LVDGRWLYNPHH
modifications: not fully specified
notes: the text gives 27; also called B-B9 phage; not shown: M13 phage gene III coat protein
As for B4, the “Specificity (sFRP-1/BSA)” value in experiment [1] is 5 ratio of binding to sFRP-1 wells over BSA wells.

Usually EC50 (read off the curve) stands for the concentration needed to bring the measured effect to its halfway point. As for B5, in the experiment with bovine serum albumin, the binding result is listed as “no binding (tested: 10 ug/ml)”. Besides, the “EC50 (read off the curve)” value in [3] is ~1 µg/mL.

A word on the Kd: it is the constant that tells how readily two partners part at equilibrium. As for QGTLVDGRWLQL (also called AC2 peptide) [A-C2 synthetic 12-mer peptide], in [4], the “TRAP+ multinucleated cells, osteoblast and adult spleen cell co-cultures” value is 10 fold increase. Also, the Kd in experiment [5] was 3.9 µM. Moreover, the N in experiment [6] amounted to 1.14. For the same molecule, in [7], the ΔH was -3620 and the ΔS turned out to be 12.6.

B6: ΔCRD-H/M (other)
single chain: EYDYVSFQSDIGPYQSGRFYTKPPQIAMTPPNATEASKPQGTTVCPPCDNELKSEAIIEHLCASEFALRMKIKEVKKENGDKKIVPKKKKPLKLGPIKKKDLKKLVLYLKNGADCPCHQLDNLSHHFLIMGRKVKSQYLLTAIHKWDKKNKEFKNFMKKMKNHECPTFQSVFKQAYVEQKLISEEDLNSAVDHHHHHH
notes: the sheet prints H/M, the text M/H; also called human sFRP-ΔCRD-M/H; sFRP-1 derivative lacking the CRD
Take B6: in experiment [8], the binding result is listed as “no binding”.
